Results reported in patent CN107793480A (SHANGHAI JIBEI BIOLOGICAL TECH CO LTD, dated 2018).

Experiments:
CD19-His = molecular target: T1, CD19-His (human, UniProt P15391 20-291); assay: BLI (ForteBio Octet), CD19-His amine-coupled to AR2G sensor, scFv-hIgG1 in solution
T1 construct: Amine-coupled to AR2G biosensors for BLI; also called CD19-His抗原; not shown: His tag
T1 sequence (looked up): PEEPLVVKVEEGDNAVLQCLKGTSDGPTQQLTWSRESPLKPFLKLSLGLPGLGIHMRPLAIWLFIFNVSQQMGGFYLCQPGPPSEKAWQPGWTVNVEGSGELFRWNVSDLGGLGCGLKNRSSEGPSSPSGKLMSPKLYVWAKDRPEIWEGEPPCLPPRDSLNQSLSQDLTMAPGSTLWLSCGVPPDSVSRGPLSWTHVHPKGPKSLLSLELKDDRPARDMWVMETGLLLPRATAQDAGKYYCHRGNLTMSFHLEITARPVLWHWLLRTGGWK

[1] = molecular target: CD19 (antigen of the phage competition ELISA) (human) (UniProt P15391); assay: phage competition ELISA on CD19; competitor 3ug/ml FMC63mIgG2a, anti-mouse Fc detection
CD19 on Raji cells [2] = molecular target: T2, CD19 on Raji cells (human, UniProt P15391 20-556); assay: flow cytometry on Raji cells, scFv-hIgG1, all four in one experiment
T2 construct: whole, on cells; also called Raji细胞(CD19+)
T2 sequence (looked up): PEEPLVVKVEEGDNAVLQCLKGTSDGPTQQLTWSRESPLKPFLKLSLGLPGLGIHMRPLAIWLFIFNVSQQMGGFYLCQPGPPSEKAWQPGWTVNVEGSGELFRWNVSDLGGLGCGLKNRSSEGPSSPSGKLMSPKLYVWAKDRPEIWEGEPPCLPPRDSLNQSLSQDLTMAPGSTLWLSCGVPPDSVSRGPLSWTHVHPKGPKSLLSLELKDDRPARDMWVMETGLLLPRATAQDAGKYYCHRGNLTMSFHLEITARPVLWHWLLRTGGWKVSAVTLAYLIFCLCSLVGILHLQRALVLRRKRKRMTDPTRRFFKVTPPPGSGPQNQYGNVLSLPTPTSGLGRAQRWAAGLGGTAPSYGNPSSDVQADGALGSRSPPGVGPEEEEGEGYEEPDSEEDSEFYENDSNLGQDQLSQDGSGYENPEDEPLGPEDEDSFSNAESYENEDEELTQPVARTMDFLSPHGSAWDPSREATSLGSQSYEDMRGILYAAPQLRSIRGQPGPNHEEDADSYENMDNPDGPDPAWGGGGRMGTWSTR

CD19 on Raji cells [3] = molecular target: T2, CD19 on Raji cells; assay: flow cytometry on Raji cells, anti-human IgG Fc-PE, MFI against concentration

## NC (negative control in the scFv-hIgG1 BLI table)
CD19-His
  Response: 0.09

## NC (negative control in the phage ELISAs)
[1]
  Emax(最大抑制率): 19%

B1: 7E11-hIgG1 (Fc fusion)
chain: EIVMTQSPATLSLSPGERATLSCRASQDISKYLNWYQQKPGQAPRLLIYHTSRLHSGIPARFSGSGSGTDYTLTISSLQPEDFAVYFCQQGKTFPLTFGQGTKLEIKGGGGSGGGGSGGGGSQVQLQESGPGLVKPSETLSLTCTVSGFSLEDYGVSWIRQPPGKGLEWIGVIWGSETTYYNSSLKSRVTISKDNSKNQVSLKLSSVTAADTAVYYCAKHYYYGGSYAMDYWGQGTLVTVSS
notes: not shown: human IgG1 Fc (hIgG1Fc) from vector pGCIgGH1
CD19 on Raji cells [2]
  EC50: 0.36 µg/mL

B2: C2146-hIgG1 (Fc fusion)
chain: EIVMTQSPATLSLSPGERATLSCRASQDISKYLNWYQQKPGQAPRLLIYHTSRLHSGIPARFSGSGSGTDYTLTISSLQPEDFAVYFCQQGNTLPYTFGQGTKLEIKGGGGSGGGGSGGGGSQVQLQESGPGLVKPSETLSLTCTVSGVSLPDYGVSWIRQPPGKGLEWIGVIWGSETTYYNSSLKSRVTISKDNSKNQVSLKLSSVTAADTAVYYCAKHYYYGGSYAMDYWGQGTLVTVSS
notes: also called C2146 scFv-hIgG1; not shown: human IgG1 Fc (hIgG1Fc) from vector pGCIgGH1
CD19 on Raji cells [2]
  EC50: 2.63 µg/mL

B3: 4B10-hIgG1 (Fc fusion)
chain: EVKLQESGPGLVAPSQSLSVTCTVSGFSLEDYGVSWIRQPPRKGLEWLGVIWGSETTYYNSALKSRLTIIKDNSKSQVFLKMNSLQTDDTAIYYCAKHYYYGGSYAMDYWGQGTSVTVSSGGGGSGGGGSGGGGSDIQMTQTTSSLSASLGDRVTISCRASQDISKYLNWYQQKPDGTVKLLIYHTSRLHSGVPSRFSGSGSGTDYSLTISNLEQEDIATYFCQQGNTLPYTFGGGTKLEIT
notes: Secreted scFv-hIgG1Fc fusion from 293 cells, protein A purified; Junction between scFv and Fc not described; also called 4B10 scFv-hIgG1Fc融合蛋白; not shown: human IgG1 Fc (hIgG1Fc) from vector pGCIgGH1
CD19 on Raji cells [3]
  EC50: 0.16 µg/mL
CD19-His
  Response: 0.35
  koff: 0.000895 s⁻¹

B4: 8A10-hIgG1 (Fc fusion)
chain: EVKLQESGPGLVAPSQSLSVTCTVSGVSLPDYGVSWIRQPPRKGPEWLGVIWGSETTYYNSALKSRLTIIKDNSKSQVFLKMNSLQTDDTAIYYCAKHYYYGGSYAMDYWGQGTSVTVSSGGGGSGGGGSGGGGSDIQMTQTTSSLSASLGDRVTISCRASQDISKYLNWYQQKPDGTVKLLIYHTSRLHSGVPSRFSGSGSGTDYSLTISNLEQEDIATYFCQQGKTFPLTFGGGTKLEIT
notes: Secreted scFv-hIgG1Fc fusion from 293 cells, protein A purified; also called 8A10 scFv-hIgG1Fc融合蛋白; not shown: human IgG1 Fc (hIgG1Fc) from vector pGCIgGH1
CD19 on Raji cells [3]
  EC50: 0.13 µg/mL
CD19-His
  Response: 0.418
  koff: 0.000913 s⁻¹

B5: C21-hIgG1 (Fc fusion)
chain: EVKLQESGPGLVAPSQSLSVTCTVSGFSLEDYGVSWIRQPPRKGLEWLGVIWGSETTYYNSALKSRLTIIKDNSKSQVFLKMNSLQTDDTAIYYCAKHYYYGGSYAMDYWGQGTSVTVSSGGGGSGGGGSGGGGSDIQMTQTTSSLSASLGDRVTISCRASQDISKYLNWYQQKPDGTVKLLIYHTSRLHSGVPSRFSGSGSGTDYSLTISNLEQEDIATYFCQQGKTFPLTFGGGTKLEIT
notes: also called 4B10&8A10组合突变; not shown: human IgG1 Fc (hIgG1Fc) from vector pGCIgGH1
CD19 on Raji cells [2]
  EC50: 0.23 µg/mL
CD19 on Raji cells [3]
  EC50: 0.09 µg/mL
